Measurements published in paper PMC11154711 (2024).

Assays:
Assay in all cases: BLI
OTUB1 V173K [1] = molecular target: T1, OTUB1 V173K (human, UniProt Q96FW1 1-271, V173K)
OTUB1 F133A [2] = molecular target: T2, OTUB1 F133A (human, UniProt Q96FW1 1-271, F133A)
OTUB1 V173D [3] = molecular target: T3, OTUB1 V173D (human, UniProt Q96FW1 1-271, V173D)
OTUB1 V173K [4] = molecular target: T1, OTUB1 V173K; remark: listed apart in the source
OTUB1 F133A [5] = molecular target: T2, OTUB1 F133A; remark: listed apart in the source
OTUB1 V173D [6] = molecular target: T3, OTUB1 V173D; remark: listed apart in the source

B1: Ubc13 (E2 ubiquitin-conjugating enzyme) (enzyme)
chain: MAGLPRRIIKETQRLLAEPVPGIKAEPDESNARYFHVVIAGPQDSPFEGGTFKLELFLPEEYPMAAPKVRFMTKIYHPNVDKLGRICLDILKDKWSPALQIRTVLLSIQALLSAPNPDDPLANDVAEQWKTNEAQAIETARAWTRLYAMNNI
OTUB1 V173K [1]
  Kd: 1.76 µM
OTUB1 F133A [2]
  Kd: 46.7 µM
OTUB1 V173D [3]
  Kd: 3.02 µM
OTUB1 V173K [4]
  koff: 0.006 s⁻¹
OTUB1 F133A [5]
  koff: 0.005 s⁻¹
OTUB1 V173D [6]
  koff: 0.004 s⁻¹
